Measurements taken from patent US20260070983A1 (Eli Lilly, published 2026).

Target: human PD-1-ECD-His (human)
Assay: SPR (Biacore), 37 °C

Sequence of human PD-1-ECD-His (human) (chain, as listed by the source): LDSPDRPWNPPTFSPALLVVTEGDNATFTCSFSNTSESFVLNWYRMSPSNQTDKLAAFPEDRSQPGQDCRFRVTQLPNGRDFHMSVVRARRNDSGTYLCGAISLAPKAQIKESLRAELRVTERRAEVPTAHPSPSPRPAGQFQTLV

Kd: 2.29 nM | koff: 0.000701 s⁻¹ | kon: 307000 M⁻¹ s⁻¹
B1: peresolimab (antibody, V domains shown)
VH: QVQLVQSGAEVKKPGASVKVSCKVSGYSLSKYDMSWVRQAPGKGLEWMGIIYTSGYTDYAQKFQGRVTMTEDTSTDTAYMELSSLRSEDTAVYYCATGNPYYTNGFNSWGQGTLVTVSS
VL: DIQMTQSPSSLSASVGDRVTITCQASQSPNNLLAWYQQKPGKAPKLLIYGASDLPSGVPSRFSGSGSGTDFTLTISSLQPEDFATYYCQNNYYVGPVSYAFGGGTKVEIK
